Reference: paper PMC3279538 (Diabetes, 2010)

Biological target: endogenous B7-H1 wild type (NOD mouse, from wild-type spleen) (mouse (endogenous in NOD spleen), UniProt Q9EP73 19-290)
Assay: SPR

endogenous B7-H1 wild type (NOD mouse, from wild-type spleen), sequence (Q9EP73 19-290): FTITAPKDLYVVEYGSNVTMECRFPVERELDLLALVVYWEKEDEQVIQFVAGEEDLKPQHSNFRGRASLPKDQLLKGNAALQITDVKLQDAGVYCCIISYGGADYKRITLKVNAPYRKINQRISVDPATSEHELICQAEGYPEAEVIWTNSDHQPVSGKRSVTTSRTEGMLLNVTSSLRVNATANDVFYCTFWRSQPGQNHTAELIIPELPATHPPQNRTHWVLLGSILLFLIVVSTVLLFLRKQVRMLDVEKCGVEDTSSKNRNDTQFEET

B1: PD-1 receptor (receptor, UniProt Q02242 25-169, looked up)
chain: LEVPNGPWRSLTFYPAWLTVSEGANATFTCSLSNWSEDLMLNWNRLSPSNQTEKQAAFCNGLSQPVQDARFQIIQLPNRHDFHMNILDTRRNDSGIYLCGAISLHPKAKIEESPGAELVVTERILETSTRYPSPSPKPEGRFQGM
A Kd of 11 nM and a koff of 0.0017 s⁻¹ were found for B1 in this work.
